Patent publication US20250188457A1, “COMPOSITIONS AND METHODS FOR THE TREATMENT OF GLIOBLASTOMA BY INHIBITION OF THE TFPI2-CD51-STAT6 SIGNALING AXIS” (Northwestern University, priority 2023, published 2025)

Columns and labels:
[1] = test system: CT2A cells and GSC272 cells; assay: T cell-mediated cytotoxicity assay (LDH release); type: cell-based, human and mouse; conditions: TFPI2 recombinant protein 20 ng/ml; AS1517499 25 nM
Protocol: T cell-mediated cytotoxicity was determined by Cytotox96 non-radioactive cytotoxicity assay kit (Promega, #G1780) based on the release of lactate dehydrogenase (LDH). After expansion and activation, mouse primary CD8^+ T cells or human JURKAT T cells were collected. About 10^5 T cells were co-cultured with SIM-A9 microglia or PrhMG (1:1 ratio) treated with TFPI2 recombinant protein in the presence or absence of STAT6 inhibitor AS1517499 for 24 hrs. T cells (effector cells) were then collected for further co-culturing with CT2A cells or GSC272 cells (target cells) at different ratios (10000:1000, 5000:1000, 2500:1000, 1250:1000, 620:1000, 310:1000, 160:1000, 80:1000, 40:1000, 20:1000) for 5 hrs. Experimental groups and corresponding control groups, including effector cell spontaneous LDH release, target cell spontaneous LDH release, target cell maximum LDH release, volume correction control, and culture medium background control were set up following the manufacturer's instructions to evaluate T cell-mediated cytotoxicity on GSCs. Optical density (OD) was measured by a Biotek Synergy 2 SL Microplate Reader. The cytotoxicity was calculated by the formula: (experimental OD value-effector spontaneous OD value-target spontaneous OD value)/(target maximum OD value-target spontaneous OD value).

[2] = test system: HMC3 microglia; assay: Incucyte live-cell and scratch wound healing migration of microglia; type: cell-based, human; conditions: TFPI2 recombinant protein 20 ng/ml; AS1517499 25 nM
Protocol: The scratch-wound assay was performed (Ref. 74; incorporated by reference in its entirety). For tracking single cell movement, microglia were cultured in 96-well plates (Corning, #3599) with different treatments. Incucyte Live Cell Analysis System was used to record cell movement over time. The time-lapse images were reconstructed and analyzed using TrackMate (Refs. 75-76; incorporated by reference in its entirety). The speed of each individual cell was calculated by processing images with LoG detector and Linear Assignment Problem (LAP) tracker.

[3] = test system: GSC23 and GSC262 cells; assay: Tumorsphere formation assay (GSC self-renewal); type: cell-based, human; conditions: GSC262 and GSC23; indicated concentrations
Protocol: The tumorsphere formation assay was performed (Ref. 79; incorporated by reference in its entirety). GSCs were treated with different concentrations of recombinant TFPI2 protein for 24 hrs with or without inhibition of JNK or STAT3, or modified with TFPI21 KO, knockdown or overexpression. After treatment or genetic modifications, cells were centrifuged at 1500 rpm for 5 min and resuspended in the plain cell culture media without additional supplements. Cells were then seeded into a 96-wells plate at 100 cells/well. The number of tumorspheres in each well was imaged and quantified after 10 days.

[4] = biological target: T1, CD51 (integrin alpha V, ITGAV) on human microglia (HMC3 cell line, primary human microglia PrhMG) (human, UniProt P06756 31-1048); assay: IP-MS: membrane proteins of PrhMG incubated with TFPI2 recombinant protein, immunoprecipitated with TFPI2 antibody, LC-MS; CD51 is one of the enriched membrane protein candidates
T1 construct: whole, on cells; Endogenous protein of human microglia; also called Integrin aV/CD51
Protocol: Permeabilized cells were centrifuged for 15 min at 16,000 g to remove the supernatant containing cytosolic proteins. The cell pellets were then incubated with 0.5 ml solubilization buffer at 4° C. for 30 min with constant mixing. Solubilized membrane and membrane-associated proteins were isolated by centrifuging at 16,000 g for 15 min at 4° C. Extracted membrane-associated proteins were proceeded for IP-MS pull-down assay. A total of […] cell membrane lysate was incubated with […] TFPI2 antibody (Abcam, #ab186747) or IgG control (Cell Signaling Technology, #2729) for 12 hrs with gentle rotation at 4° C. […] Protein A/G PLUS-Agarose (#sc-2003, Santa Cruz Biotechnology) were mixed with each sample on ice. The lysate bead mixture was incubated at 4° C. under rotary agitation for 4 hrs. The tubes were centrifuged to remove supernatant. The beads were then washed in lysis buffer three times to remove non-specific binding. After removing wash buffer, the complex was washed with pre-urea wash buffer (50 mM Tris pH 8.5, 1 mM EGTA, 75 mM KCl) to remove all residual supernatant. […] IP pulled-down samples were analyzed by LC-MS/MS using a Dionex UltiMate 3000 Rapid Separation nanoLC coupled to the Orbitrap Elite Mass Spectrometer (Thermo Fisher Scientific Inc, San Jose, CA). […]

[5] = biological target: HMC3 microglia; assay: Human phospho-kinase antibody array; type: cell-based; conditions: 20 ng/ml TFPI2 recombinant protein
Protocol: After starvation for 24 hrs followed by TFPI2 recombinant protein treatment for 1 hr, HMC3 cell lysate was prepared using a lysis buffer with […]. Phosphorylation profiles of kinases were determined using Proteome Profiler Human Phospho-Kinase Array Kit (Bio-Techne, #ARY003C) as the instruction manual. Signal was detected under ChemiDoc Touch Imaging System (Bio-Rad).

T1 sequence (P06756 31-1048): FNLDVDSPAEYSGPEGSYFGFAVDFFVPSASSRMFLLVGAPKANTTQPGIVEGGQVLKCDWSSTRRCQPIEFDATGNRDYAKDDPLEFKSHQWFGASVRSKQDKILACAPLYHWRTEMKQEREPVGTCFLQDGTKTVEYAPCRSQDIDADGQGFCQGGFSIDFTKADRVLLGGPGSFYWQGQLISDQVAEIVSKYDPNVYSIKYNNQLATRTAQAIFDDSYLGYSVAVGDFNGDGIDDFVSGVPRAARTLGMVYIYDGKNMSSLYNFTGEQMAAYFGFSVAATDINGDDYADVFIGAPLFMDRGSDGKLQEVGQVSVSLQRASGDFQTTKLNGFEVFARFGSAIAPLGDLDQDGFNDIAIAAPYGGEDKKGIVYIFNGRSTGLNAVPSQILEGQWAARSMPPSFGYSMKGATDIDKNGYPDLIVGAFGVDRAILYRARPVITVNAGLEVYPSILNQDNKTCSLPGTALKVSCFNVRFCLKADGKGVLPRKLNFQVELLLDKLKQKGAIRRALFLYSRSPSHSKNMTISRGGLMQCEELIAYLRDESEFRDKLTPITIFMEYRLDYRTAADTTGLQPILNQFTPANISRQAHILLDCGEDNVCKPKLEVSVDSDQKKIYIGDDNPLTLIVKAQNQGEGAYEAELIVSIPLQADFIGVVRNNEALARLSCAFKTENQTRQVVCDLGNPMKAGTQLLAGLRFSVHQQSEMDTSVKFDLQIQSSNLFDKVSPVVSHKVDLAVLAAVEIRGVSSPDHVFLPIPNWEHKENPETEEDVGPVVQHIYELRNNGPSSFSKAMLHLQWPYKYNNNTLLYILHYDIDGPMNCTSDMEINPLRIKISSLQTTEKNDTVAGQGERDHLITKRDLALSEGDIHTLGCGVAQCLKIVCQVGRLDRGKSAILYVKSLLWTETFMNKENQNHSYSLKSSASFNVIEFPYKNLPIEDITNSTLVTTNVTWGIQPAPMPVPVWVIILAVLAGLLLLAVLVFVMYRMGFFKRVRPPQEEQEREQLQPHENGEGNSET

NC(=O)c1cnc(NCCc2ccc(O)c(Cl)c2)nc1NCc1ccccc1 [AS1517499]
suppression of T cell-mediated tumor cell cytotoxicity by TFPI2-polarized microglia [1]: rescued | TFPI2-induced HMC3 microglia migration, incucyte live-cell and scratch assays [2]: impairment

B1: TFPI2 recombinant protein (tissue factor pathway inhibitor 2; BioVision, #7481-10) (ligand, UniProt P48307 23-235, looked up)
chain: DAAQEPTGNNAEICLLPLDYGPCRALLLRYYYDRYTQSCRQFLYGGCEGNANNFYTWEACDDACWRIEKVPKVCRLQVSVDDQCEGSTEKYFFNLSSMTCEKFFSGGCHRNRIENRFPDEATCMGFCAPKKIPSFCYSPKDEGLCSANVTRYYFNPRYRTCDAFTYTGCGGNDNNFVSREDCKRACAKALKKKKKMPKLRFASRIRKIRKKQF
notes: Bought recombinant protein added to microglia at 20 ng/ml; also called recombinant TFPI2; secreted TFPI2
GSC self-renewal (tumorspheres) upon TFPI2 recombinant protein [3]: Enhanced | fold change in TFPI2 IP group versus control IgG group [4]: ≥ 2 fold | kinases STAT6 and AKT in phospho-kinase array [5]: activated
